Source: patent US11856945B2, “Methods and systems for preparing and preserving a biological sample” (Washington University, priority 2017, dated 2024)

What was measured:
[1] = tested on: streptozotocin-induced type 1 diabetic mice; assay: Blood glucose in streptozotocin-induced type 1 diabetic mice; type: in vivo; details: 1 mg/kg intravenous
Description: After establishing the chemical stability and structural integrity of ZIF-8 encapsulated insulin, the biological activity of ZIF-8 encapsulated insulin was assessed by measuring the effectiveness of ZIF-8 encapsulated insulin for treating hyperglycemia in streptozotocin-induced type 1 diabetic mice. […] The ZIF-8 encapsulated insulin was released by adding EDTA before injection. The blood glucose concentrations of mice in each group were then monitored for 12 h. […] Histological evaluation of the major organs of the mice at 5 days after intravenous injection of PBS or stabilized insulin. […] The ZIF-8 encapsulated insulin was released by adding EDTA before injection. Results are the mean±standard deviation (n=3). […] The partial loss of insulin bioactivity here could be attributed to the loss of structure integrity of insulin at elevated temperatures as confirmed by the aforementioned ELISA, CD and HPLC experiments.
Mice were anesthetized with 2% isoflurane.

[2] = Preservation of CA-125 spiked in serum/plasma dried on paper (ELISA); type: physicochemical
Source text: Further attention was given to blood (and components serum and plasma), the most common biospecimens in biological and clinical studies. Compared to urine, serum or plasma represents a more complex biological matrix due to the presence of large amount of various proteins such as albumin, globulins and fibrinogen. Before proceeding to assess the preservation of specific protein biomarker, it was confirmed that different types of proteins are extracted from the paper substrates containing dried serum with or without ZIF-8 encapsulation using sodium dodecyl sulfate-polyacrylamide gel electrophoresis (SDS-PAGE), indicating the potential of this technique in preserving multiple protein biomarkers simultaneously in serum or plasma (FIG. 16). […] Lane a, c and e are corresponding to eluate of volunteer #1, #2 and #3 serum without ZIF-8 encapsulation, respectively. Lane b, d and f are corresponding to eluate of volunteer #1, #2 and #3 serum with ZIF-8 encapsulation, respectively. CA-125, a serum biomarker for ovarian cancer, was used as the model protein and spiked into serum from healthy people. Considering extremely high concentration of serum proteins, the serum was first diluted (5-, 10- or 20-fold) before spiking CA-125 and adding ZIF-8 precursors to ensure ZIF-8 formation and more complete encapsulation. The CA-125 spiked serum samples, both with and without ZIF-8 encapsulation, were dried on paper and stored at 40° C. for 1 week. […] The poor preservation of CA-125 from 5- and 10-fold diluted serum was due to the incomplete ZIF-8 formation and encapsulation (FIG. 18). The encapsulation efficiency was calculated by subtracting the remaining CA-125 amount in the supernatant after encapsulation and centrifugation (concentration measured by ELISA) from the total CA-125 amount. […] Subsequently, CA-125 was spiked into three different matrices that represent typical blood-derived biospecimens (serum, heparin-anticoagulated plasma and EDTA-anticoagulated plasma from healthy people with 20-fold dilution), dried on paper substrates with and without ZIF-8 encapsulation, and subsequently stored at 25, 40, or 60° C. for different durations of time. CA-125 concentration in the eluate was quantified using sandwich ELISA. […] (FIG. 17D-F). FIGS. 17D-F show preservation efficacy of CA-125 spiked in serum, heparin-plasma or EDTA-plasma on paper card at 25, 40 or 60° C. for different durations.
Sample preparation. NGAL-spiked artificial urine (50 μg/ml of NGAL, 25 μl) or patient urine (25 μl) was first mixed with 2-methylimidazole aqueous solution (12.5 μl) and then zinc acetate dihydrate aqueous solution (12.5 μl). The final concentrations of 2-methylimidazole after mixing were 320 mM, 160 mM, 80 mM and 40 mM. […]

[3] = Preservation of CA-125 spiked in fresh blood under temperature fluctuations and shipping; type: physicochemical; details: plasma from spiked fresh blood, 20-fold diluted; 8 days 25/40° C. temperature cycles or 10 days shipping
Description: The applicability of this technique was assessed to preserve blood samples drawn in resource-limited settings. Unlike serum and plasma, in some embodiments the presence of a large quantity of whole cells (red and white blood cells and platelets) in blood affects ZIF-8 encapsulation of target protein biomarkers. Considering that in some embodiments ZIF-8 also forms a thick layer on cell surfaces56 and lead to incomplete encapsulation or preservation of target protein biomarkers, it is important to remove blood cells through centrifugation before ZIF-8 encapsulation of protein biomarkers. Unfortunately, centrifuge is typically inaccessible in resource-limited settings considering that conventional systems are bulky, expensive and electrically-powered. A hand-powered centrifuge was implemented that was able to separate plasma from whole blood within 10 minutes for subsequent ZIF-8 encapsulation (FIG. 19A). In order to mimic fresh whole blood samples from ovarian cancer patients, four different concentrations of CA-125 within pathological-relevant range from 25 ng/ml-25 μg/ml were spiked into fresh blood from healthy volunteers.58-59 Then the plasma samples (heparin-anticoagulated) were separated from blood and diluted 20-fold for ZIF-8 encapsulation. To assess the preservation efficacy of this approach under unregulated conditions, two sets of experiments were devised. […]

[4] = Release of insulin from ZIF-8 encapsulation by EDTA; type: physicochemical; details: 30 mM zinc acetate with 120 mM 2-methylimidazole
Source text: Elevated temperature is the primary detrimental condition during insulin transport and storage, an issue likely to be exacerbated by the increasing epidemic of diabetes in the developing countries, where refrigeration or “cold chain” facilities are not guaranteed. At high temperatures, insulin undergoes both physical (such as unfolding, non-native aggregation and fibrillation) and chemical degradations (such as deamidation, disulfide destruction and reshuffling). […] After 1 week, the ZIF-8 encapsulated insulin was released by adding ethylenediaminetetraacetic acid (EDTA) to dissociate the ZIF-8 crystals by breaking the coordination bonds between zinc and 2-methylimidazole (FIG. 25). The released insulin and unencapsulated insulin were then quantified by ELISA. The preservation efficacy (insulin recovery %) was calculated by comparing the recovered amount of insulin to the insulin amount prior to incubation. […] Compared to the optimal precursor concentrations, the low insulin recovery upon using 10 mM zinc acetate with 40 mM 2-methylimidazole is attributed to the incomplete encapsulation of insulin (FIG. 24). […] The insulin amount in the solution was measured by ELISA and compared with total insulin amount before encapsulation. […]

[5] = Circular dichroism of insulin secondary structure; type: physicochemical
Description: To further confirm that ZIF-8 encapsulation preserves the insulin structure, circular dichroism (CD) spectroscopy was employed to characterize the secondary structure of insulin with and without ZIF-8 encapsulation after 1 week incubation at 40° C. (FIG. 26D). […] Inset: Secondary structure content of the three types of insulin obtained from the CD spectra. […] FIG. 30 discloses the following: Left: CD spectra of pristine insulin prior to agitation, released insulin from ZIF-8 encapsulation after 48 h agitation at 200 rpm and insulin without ZIF-8 encapsulation after 48 h agitation at 200 rpm; Right: secondary structure content of the three types of insulin obtained from the CD spectra. […] FIG. 31 discloses the following: Left: CD spectra of pristine insulin prior to exposure to ethyl acetate, released insulin from ZIF-8 encapsulation after exposure to ethyl acetate for 6 h and insulin without ZIF-8 encapsulation after exposure to ethyl acetate for 6 h; and, right: secondary structure content of the three types of insulin obtained from the CD spectra. […]
Circular dichroism (CD) spectroscopy. […] The insulin recovered from various treatments was quantified by BCA assay and diluted to 100 μg/mL in PBS. The secondary structures of insulin (α-helical content, β-sheet content) were analyzed using CDPro software from CD spectra.

[6] = tested on: STZ-induced type 1 diabetic mice; details: mouse, in vivo
Description: STZ-induced male C57BL/6 (6-10 weeks) type 1 diabetic mice were purchased from Jackson Laboratory (USA). The blood glucose levels of mice were tested 1 day before administration by collecting blood (˜3 μL) from the tail vein and measuring using the Clarity GL2Plus glucose monitor (VWR, USA). The mice were randomly divided into four groups (3 mice each group) and intravenously injected via lateral tail vein with PBS solution, insulin stored at −20° C., ZIF-8 preserved insulin (dissociated by EDTA) and insulin alone stored at 40° C. for 1 week, respectively. The insulin dose for each mouse was 1 mg/kg (125 μg/mL, ˜200 μL). The blood glucose level was measured from tail vein blood samples (˜3 μL) of mice at different time points (at 10, 20, 40, and 60 min, and once per hour afterward for the first 12 h in the day of administration). Mice were anesthetized with 2% isoflurane. The mice treated with ZIF-8 preserved insulin and PBS were sacrificed after 5 days administration, and major organs were collected and sliced for haematoxylin and eosin (H&E) staining.

Substance: Insulin at −20° C.: unencapsulated insulin solution stored frozen at −20° C., the gold standard control
- time blood glucose maintained in the normoglycemic range [1]: 4 h
- blood glucose after return to hyperglycemic range ([1]; within 12 h): ~550 mg/dL

Substance: cancer antigen 125 [CA-125]
- CA-125 preservation ([2]; 20-fold diluted serum, with ZIF-8 encapsulation, 40° C., one week): ~90%
- CA-125 preservation ([2]; serum, heparin-plasma and EDTA-plasma (20-fold dilution), 25° C., 4 weeks): ~50%
- CA-125 preservation ([2]; serum, heparin-plasma and EDTA-plasma (20-fold dilution), 40° C., 4 weeks): ~40%
- CA-125 preservation ([2]; serum, heparin-plasma and EDTA-plasma (20-fold dilution), 60° C., 4 weeks): ~30%
- CA-125 preservation [3]: 50-60%

Substance: unencapsulated insulin: human recombinant insulin in solution without ZIF-8 encapsulation
- effect on blood glucose concentrations [1]: only moderately decreased glucose concentrations
- release of insulin from ZIF-8 by EDTA [4]: ~90%
- secondary structure (CD spectrum) ([5]; 1 week incubation at 40° C., versus pristine insulin): an increase in the β-sheet content along with the decrease in the α-helical content
- secondary structure (CD spectrum) ([5]; after mechanical agitation (48 h at 200 rpm)): from an overall rich helical to dominant β-sheet structure
- Mice weight Before [6]: 22.0 ± 0.2 g
